From publication PMC8395977

How the values were obtained:
[1] = molecular target: iota carbonic anhydrase from Thalassiosira pseudonana (tpι-CA), full-length four-domain recombinant protein (Thalassiosira pseudonana); test: cross-linking; 0.01% glutaraldehyde, 20 mM Na2HPO4 pH 8.0, 10 to 15 min at room temperature, then SDS-PAGE and Western blot
[2] = molecular target: iota carbonic anhydrase from Thalassiosira pseudonana (tpι-CA), full-length four-domain recombinant protein (Thalassiosira pseudonana); test: SEC; Superdex Increase S200 10 x 300 at 4 °C, samples loaded at 50 µM to 200 µM; Benzonase treatment where mentioned
[3] = molecular target: iota carbonic anhydrase from Thalassiosira pseudonana (tpι-CA), full-length four-domain recombinant protein (Thalassiosira pseudonana); test: SEC-SAXS; SWING beamline (SOLEIL), Agilent Bio SEC-5 500 Å column, 15 °C; molecular mass from SAXS-MoW
[4] = molecular target: iota carbonic anhydrase from Thalassiosira pseudonana (tpι-CA), full-length four-domain recombinant protein (Thalassiosira pseudonana); test: native MS; ESI-MS under non-denaturing conditions, 500 mM ammonium acetate pH 8, 8 µM protein, Q-ToF (Synapt G1), source 20 °C
[5] = molecular target: tpι-CA domain variant ∆1 (composed of domain 1 only) (Thalassiosira pseudonana); test: DOSY-NMR; 30 to 80 µM protein, 27 mM Tris, 45 mM NaCl, 10% D2O, pH 8, 298 K, 600 MHz; experimental Dt and Rh compared with HYDROPRO values of the models
[6] = molecular target: tpι-CA domain variant ∆1-2 (composed of domains 1 and 2) (Thalassiosira pseudonana); test: as above

For “iota carbonic anhydrase from Thalassiosira pseudonana (tpι-CA), full-length four-domain recombinant protein (enzyme)”, the stoichiometry N [1] was 4, the stoichiometry N [2] was 4 and the stoichiometry N [3] was 4. For the same substance, the stoichiometry N [4] was 4.
“tpι-CA domain variant ∆1 (composed of domain 1 only) (domain or fragment)” gave a stoichiometry N [5] of 2.
“tpι-CA domain variant ∆1-2 (composed of domains 1 and 2) (domain or fragment)” showed a stoichiometry N [6] of 4.
